The target in test [1] is T1, human angiopoietin-2 protein (human, UniProt O15123 19-496).
T1 construct: also called Ang-2; Ang2
T1 sequence (looked up): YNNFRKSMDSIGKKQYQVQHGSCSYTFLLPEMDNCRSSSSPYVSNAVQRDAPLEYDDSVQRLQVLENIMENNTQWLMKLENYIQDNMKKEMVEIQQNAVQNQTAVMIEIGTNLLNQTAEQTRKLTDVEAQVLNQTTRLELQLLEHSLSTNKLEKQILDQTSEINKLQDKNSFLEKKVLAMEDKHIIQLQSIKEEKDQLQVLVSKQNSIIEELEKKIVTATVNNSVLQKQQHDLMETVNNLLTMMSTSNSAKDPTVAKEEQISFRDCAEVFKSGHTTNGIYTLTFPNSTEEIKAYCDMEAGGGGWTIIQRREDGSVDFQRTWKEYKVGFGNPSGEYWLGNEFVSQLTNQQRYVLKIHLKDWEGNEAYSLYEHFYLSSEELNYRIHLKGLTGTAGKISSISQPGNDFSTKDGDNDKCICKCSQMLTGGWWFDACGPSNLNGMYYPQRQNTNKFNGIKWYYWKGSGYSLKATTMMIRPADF
The test can be described thus: competitive ELISA: Tie-2-Fc binding to coated Ang-2; T. Here is the method: Plates were washed three times with washing buffer (0.1% Tween 20, PBS, pH 7.4) and blocked with Superblock (Scytek), […] at room temperature (“RT”) for 1 hour. […] Plates were washed 3 times with washing buffer. […] Following incubation, 50 ul of 1:5,000 dilution of goat anti-mouse IgG-HRP in Superblock was then added and incubated at RT for one hour. After washing 3 times, […] was added, and incubated for 3-5 minutes. Color development was monitored and stopped with 25 μl of 2 M H₂SO₄. OD450 nm with a correction wavelength of 540 nm was measured.
(In an ELISA, binding on a coated surface is turned into a signal by an enzyme label.)

Test [2] has as its target T2, recombinant human VEGF165 (human, UniProt P15692-4 27-191).
T2 construct: also called rhVEGF165
Put plainly: competition ELISA: VEGF165 binding to coated VEGFR2/Fc.

Drawing on patent publication US20120321591A1 (COVX TECHNOLOGIES IRELAND, published 2012), this text covers IC50 for 40 molecules.

Bridges are numbered along the chain shown (N, C = ends). Where no end group is shown, it is not given here. [ ]: non-standard residue; d: D form. 0P linker = not defined here; Nle = CCCC[C@H](N)C(=O)O

T2 sequence (P15692 other isoform, or with tags, fused parts or gaps limits assumed): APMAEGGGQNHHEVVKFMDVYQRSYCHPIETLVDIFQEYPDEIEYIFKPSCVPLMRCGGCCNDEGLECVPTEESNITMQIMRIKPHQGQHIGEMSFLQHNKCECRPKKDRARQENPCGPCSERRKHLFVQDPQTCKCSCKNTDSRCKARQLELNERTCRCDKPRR

Usually IC50 stands for the concentration that gives 50% inhibition. As to QKYQPLDELDKTLYDQFMLQQG-NH2 (not fully specified (N-terminus), also called 4026 T) [Compound 4026, peptide plus linker (T)], the IC50 in test [1] was determined as 32.3 nM.

B1: Compound 4059, peptide plus linker (T) (peptide)
peptide: QRYQPLDELDKTLYDQFMLQQG-NH2
modifications: not fully specified (residue 11, N-terminus); printed as QRY QPL DEL DK(0P)T LYD QFM LQQ G; also: N-terminal acyl cap
notes: also called 4059 T
In test [1], B1 yielded an IC50 of 177 nM.

B2: Compound 4027, peptide plus linker (T) (peptide)
peptide: QKYQPLDELDK(0P linker)TLYDQFMLQQG-NH2
modifications: reading uncertain; also: N-terminal acyl cap, printed as QKY QPL DEL DK(0P)T LYD QFM LQQ G
notes: also called 4027 T
As to B2, in test [1], the IC50 came to 29 nM.

B3: Compound 4060, peptide plus linker (T) (peptide)
peptide: QHYQPLDELDKTLYDQFMLQQG-NH2
modifications: not fully specified (residue 11, N-terminus); printed as QHY QPL DEL DK(0P)T LYD QFM LQQ G; also: N-terminal acyl cap
notes: also called 4060 T
B3 showed a concentration for half-maximal inhibition (IC50) in test [1] of 214 nM. Ac-VEPNCDIHVMWVWECFERL[dL]K(Ac)-NH2 (disulfide 5-15) [[VEGF-Peptide] SEQ ID NO:60]: the 50% inhibitory concentration (IC50) in test [2] was found to be 25 nM. Still for that read-out and setting: with Ac-VEPNCDIHVMWVWECFERLYGIF-NH2 (disulfide 5-15 (inferred)) [[VEGF-Peptide] SEQ ID NO:40] the figure was 78.3 nM.

With Ac-VEPNCDIHVMWVWECFERLYGLY-NH2 (disulfide 5-15 (inferred)) [[VEGF-Peptide] SEQ ID NO:44], the IC50 in test [2] was found to be 54.6 nM. On the same count and under the same terms, the result for Ac-VEPNCDIHVMWVWECFERLYGLS-NH2 (disulfide 5-15 (inferred)) [[VEGF-Peptide] SEQ ID NO:71] reads 5.4 nM; that for Ac-VEPNCDIHVMWVWECFERLYGPF-NH2 (disulfide 5-15 (inferred)) [[VEGF-Peptide] SEQ ID NO:77], 1.8 nM. On to Ac-VEPNCDIHVMWVWECFERLYGGG-NH2 (disulfide 5-15 (inferred)) [[VEGF-Peptide] SEQ ID NO:61], for which, in test [2], the IC50 is 23.6 nM. On to Ac-VEPNCDIHVMWVWECFERLYGVQ-NH2 (disulfide 5-15 (inferred)) [[VEGF-Peptide] SEQ ID NO:74], for which, in test [2], the IC50 was found to be 4 nM.

Take Ac-VEPNCDIHVMWVWVCFERLYGGG-NH2 (disulfide 5-15 (inferred)) [[VEGF-Peptide] SEQ ID NO:43]: in test [2], the concentration for half-maximal inhibition (IC50) is 66 nM. For the molecule Ac-VEPNCDIHVMWVWECFERLYGPL-NH2 (disulfide 5-15 (inferred)) [[VEGF-Peptide] SEQ ID NO:76], the half-inhibitory concentration (IC50) in test [2] was found to be 2.3 nM. On the same count and under the same terms, the result for Ac-VEPNCDIHVMWVWECFERLYGLE-NH2 (disulfide 5-15 (inferred)) [[VEGF-Peptide] SEQ ID NO:75] reads 3 nM; that for Ac-VEPNCDIHVMWVWECFERLYGPW-NH2 (disulfide 5-15 (inferred)) [[VEGF-Peptide] SEQ ID NO:66], 18.7 nM. Same read-out and setting: the result for Ac-VEPNCDIHVMWVWECFERLYGIL-NH2 (disulfide 5-15 (inferred)) [[VEGF-Peptide] SEQ ID NO:50] reads 34.4 nM.

As to Ac-VEPNCDIHVMWVWECFERLMGLT-NH2 (disulfide 5-15 (inferred)) [[VEGF-Peptide] SEQ ID NO:59], the concentration for half-maximal inhibition (IC50) in test [2] came to 25 nM. The same measure, in the same setting: with Ac-VEPNCDIHVMWVWECFERLYGEF-NH2 (disulfide 5-15 (inferred)) [[VEGF-Peptide] SEQ ID NO:70] the figure was 9.3 nM; with Ac-VEPNCDIHVMWVWECFERLFKEA-NH2 (disulfide 5-15 (inferred)) [[VEGF-Peptide] SEQ ID NO:53], 31.4 nM; with Ac-VEPNCDIHVMWVWECFERLMKEL-NH2 (disulfide 5-15 (inferred)) [[VEGF-Peptide] SEQ ID NO:65], 18 nM.

Consider Ac-VEPNCDIHVMWVWECFERLMRLT-NH2 (disulfide 5-15 (inferred)) [[VEGF-Peptide] SEQ ID NO:46], for which the 50% inhibitory concentration (IC50) in test [2] is 44.1 nM. Still for that read-out and setting: the result for Ac-VEPNCDIHVMWVWECFERLYGWG-NH2 (disulfide 5-15 (inferred)) [[VEGF-Peptide] SEQ ID NO:42] reads 68.2 nM; that for Ac-VEPNCDIHVMWVWECFERLYGGF-NH2 (disulfide 5-15 (inferred)) [[VEGF-Peptide] SEQ ID NO:56], 26.2 nM. Regarding Ac-VEPNCDIHVMWVWECFERLMREL-NH2 (disulfide 5-15 (inferred)) [[VEGF-Peptide] SEQ ID NO:63], the IC50 in test [2] is 24 nM. Same read-out and setting: the result for Ac-VEPNCDIHVMWVWECFERLSGGG-NH2 (disulfide 5-15 (inferred)) [[VEGF-Peptide] SEQ ID NO:45] reads 51 nM; that for Ac-VEPNCDIHVMWVWECFERLLK(Ac)-NH2 (disulfide 5-15) [[VEGF-Peptide] SEQ ID NO:68], 10 nM. The same measure, in the same setting: the result for Ac-VEPNCDIHVMWVWECFERL-NH2 (disulfide 5-15 (inferred)) [[VEGF-Peptide] SEQ ID NO:64] reads 24 nM. Regarding Ac-VEPNCDIHVMWVWECFERLMK-NH2 (disulfide 5-15 (inferred)) [[VEGF-Peptide] SEQ ID NO:62], the IC50 in test [2] is 25 nM. Still for that read-out and setting: the result for Ac-VEPNCDIHVMWVWECFERLMR-NH2 (disulfide 5-15 (inferred)) [[VEGF-Peptide] SEQ ID NO:49] reads 34.5 nM; that for Ac-VEPNCDIHVMWVWECFERLVK-NH2 (disulfide 5-15 (inferred)) [[VEGF-Peptide] SEQ ID NO:48], 42.4 nM; that for Ac-VEPNCDIHVMWVWVCFERLMK-NH2 (disulfide 5-15 (inferred)) [[VEGF-Peptide] SEQ ID NO:38], 92.6 nM. For Ac-VEPNCDIHVMWVWECFERLYK-NH2 (disulfide 5-15 (inferred)) [[VEGF-Peptide] SEQ ID NO:58], the 50% inhibitory concentration (IC50) in test [2] came out at 25.1 nM.

Consider Ac-VEPNCDIHVMWVWECFERLYG-NH2 (disulfide 5-15 (inferred)) [[VEGF-Peptide] SEQ ID NO:47], for which, in test [2], the IC50 turned out to be 43.3 nM.

For the molecule Ac-VEPNCDIHVMWVWECFERLLK-NH2 (disulfide 5-15 (inferred)) [[VEGF-Peptide] SEQ ID NO:67], in test [2], the concentration for half-maximal inhibition (IC50) came out at 10.1 nM. Still for that read-out and setting: with Ac-VEPNCDIHVMWVWECFERLIK-NH2 (disulfide 5-15 (inferred)) [[VEGF-Peptide] SEQ ID NO:57] the figure was 25.4 nM.

B4: Compound 4033, peptide plus linker (T) (peptide)
peptide: QK(Ac)YQPLDEK(0P linker)DETLYDQFMLQQG
modifications: reading uncertain; also: N-terminal acyl cap, C-terminal amino cap, printed as Q(Kac)Y QPL DEK(0P) DET LYD QFM LQQ G
notes: also called 4033 T
Take B4: the IC50 in test [1] was determined as 370 nM. As to Ac-VEPNCDIHVMWVWECFERL[Nle]K-NH2 (disulfide 5-15) [[VEGF-Peptide] SEQ ID NO:54], the IC50 in test [2] was found to be 28.6 nM. As to Ac-VEPNCDIHVMWVWECFERLYGG-NH2 (disulfide 5-15 (inferred)) [[VEGF-Peptide] SEQ ID NO:52], in test [2], the half-maximal inhibitory concentration (IC50) is 32.3 nM. The same measure, in the same setting: with Ac-VEPNCDIHVMWVWECFERLYGL-NH2 (disulfide 5-15 (inferred)) [[VEGF-Peptide] SEQ ID NO:72] the figure was 4.8 nM. Still for that read-out and setting: with Ac-VEPNCDIHVMWVWECFERLY-NH2 (disulfide 5-15 (inferred)) [[VEGF-Peptide] SEQ ID NO:41] the figure was 69.9 nM.
